Measured values published in PMC9909325, “Crystal structure of the phosphorylated Arabidopsis MKK5 reveals activation mechanism of MAPK kinases” (Acta Biochimica et Biophysica Sinica, 2022).
Positions count from the first letter of the chain named. Names may count otherwise. Each block holds one molecule with its values, some of them ahead of it.

Assays:
AtMKK5-KD = biological target: T1, AtMKK5-KD (Arabidopsis thaliana, UniProt Q8RXG3); assay: PK/LDH-coupled NADH oxidation at […] nm (ATPase); assay type: biochemical; conditions: 1 mM ATP, 20 nM phosphorylated kinase domain; 10 mM MgCl2, pH 7.0, 25 °C
T1 construct: gene MKK5; kinase domain, residues 62-335, N-terminal His6-tag, pET28b, E. coli BL21(DE3); phosphorylated at Ser66, Thr83, Thr108, Thr215, Ser221
T1 sequence (Q8RXG3 62-335): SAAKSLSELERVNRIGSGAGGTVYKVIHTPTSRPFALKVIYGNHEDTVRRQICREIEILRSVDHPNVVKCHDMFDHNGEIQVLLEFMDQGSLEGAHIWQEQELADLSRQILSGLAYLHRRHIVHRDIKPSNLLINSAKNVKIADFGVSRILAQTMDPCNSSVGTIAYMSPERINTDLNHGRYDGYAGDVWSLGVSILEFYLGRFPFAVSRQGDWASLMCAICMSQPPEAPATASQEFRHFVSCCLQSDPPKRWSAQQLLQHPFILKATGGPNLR

[1] = biological target: AtMPK6(K92M) (Arabidopsis thaliana) (UniProt Q39026)
Chain of AtMPK6(K92M) (Arabidopsis thaliana) (Q39026 whole entry K92M): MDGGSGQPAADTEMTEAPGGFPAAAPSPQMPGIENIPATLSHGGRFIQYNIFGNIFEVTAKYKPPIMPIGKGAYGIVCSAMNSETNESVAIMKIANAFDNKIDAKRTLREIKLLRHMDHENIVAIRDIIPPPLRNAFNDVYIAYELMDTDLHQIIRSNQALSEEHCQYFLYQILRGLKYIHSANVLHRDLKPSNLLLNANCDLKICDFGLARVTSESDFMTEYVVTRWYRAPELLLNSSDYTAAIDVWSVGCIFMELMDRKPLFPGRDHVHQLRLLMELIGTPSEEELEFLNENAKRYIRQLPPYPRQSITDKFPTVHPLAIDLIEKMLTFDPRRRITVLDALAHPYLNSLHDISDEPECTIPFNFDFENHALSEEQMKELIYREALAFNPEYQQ

purified protein = substrate: Nc1ncnc2c1ncn2[C@@H]1O[C@H](COP(=O)(O)OP(=O)(O)OP(=O)(O)O)[C@@H](O)[C@H]1O; assay: purified protein; assay type: biochemical, Arabidopsis thaliana; conditions: no protein substrate, 10 mM MgCl2, 50 mM MOPS pH 7.0, 100 mM NaCl, 25 °C, phosphorylated enzyme 20 nM

Molecule: Nc1ncnc2c1ncn2[C@@H]1O[C@H](COP(=O)(O)OP(=O)(O)OP(=O)(O)O)[C@@H](O)[C@H]1O [ATP]
PK/LDH-coupled NADH oxidation at 340 nm (ATPase) (AtMKK5-KD): examined their effects on the catalytic function of AtMKK5-KD

decrease of AtMPK6(K92M) phosphorylation activity against wild-type AtMKK5, coupled spectrophotometric assay (20 nM AtMKK5, 1 mM ATP, 1 μM AtMPK6(K92M)) (fold decrease) [1]: 25
B1: AtMKK5 RRKR4A (full length; Arg17, Arg19, Lys20 and Arg21 all replaced by Ala) (enzyme)
chain: MKPIQSPSGVASPMKNALAAAPDLSLPLPHRDVALAVPLPLPPPSSSSSAPASSSAISTNISAAKSLSELERVNRIGSGAGGTVYKVIHTPTSRPFALKVIYGNHEDTVRRQICREIEILRSVDHPNVVKCHDMFDHNGEIQVLLEFMDQGSLEGAHIWQEQELADLSRQILSGLAYLHRRHIVHRDIKPSNLLINSAKNVKIADFGVSRILAQTMDPCNSSVGTIAYMSPERINTDLNHGRYDGYAGDVWSLGVSILEFYLGRFPFAVSRQGDWASLMCAICMSQPPEAPATASQEFRHFVSCCLQSDPPKRWSAQQLLQHPFILKATGGPNLRQMLPPPRPLPSAS
modifications: phosphorylated at Ser/Thr residues (signals similar to the wild type; sites not stated)

B2: AtMKK5 (full-length, phosphorylated; p-AtMKK5) (Arabidopsis thaliana) (protein)
chain: B1 chain with A17R, A19R, A20K, A21R
notes: full-length (348 residues), N-terminal His6-tag, pET28b, E. coli BL21(DE3); phosphorylated at Ser/Thr as purified
Km (purified protein): 96.2 ± 3.5 µM
kcat (purified protein): 1.96 ± 0.02 s⁻¹

drop of the initial velocity of AtMPK6(K92M) phosphorylation against wild-type AtMKK5, coupled spectrophotometric assay (20 nM AtMKK5, 1 mM ATP, 1 μM AtMPK6(K92M)) (fold decrease) [1]: 90
B3: AtMKK5 LLL3A (full length; Leu24, Leu26 and Leu28 all replaced by Ala) (enzyme)
chain: B1 chain with A17R, A19R, A20K, A21R, L24A, L26A, L28A
modifications: phosphorylated at Ser/Thr residues (signals similar to the wild type; sites not stated)

decrease of AtMPK6(K92M) phosphorylation activity against wild-type AtMKK5, coupled spectrophotometric assay (20 nM AtMKK5, 1 mM ATP, 1 μM AtMPK6(K92M)) (fold decrease) [1]: 3
B4: AtMKK5 R19A (full length) (enzyme)
chain: B1 chain with A17R, A20K, A21R
modifications: phosphorylated at Ser/Thr residues (signals similar to the wild type; sites not stated)

decrease of AtMPK6(K92M) phosphorylation activity against wild-type AtMKK5, coupled spectrophotometric assay (20 nM AtMKK5, 1 mM ATP, 1 μM AtMPK6(K92M)) (fold decrease) [1]: 10
B5: AtMKK5 L28A (full length) (enzyme)
chain: B1 chain with A17R, A19R, A20K, A21R, L28A
modifications: phosphorylated at Ser/Thr residues (signals similar to the wild type; sites not stated)

decrease of AtMPK6(K92M) phosphorylation activity against wild-type AtMKK5, coupled spectrophotometric assay (20 nM AtMKK5, 1 mM ATP, 1 μM AtMPK6(K92M)) (fold decrease) [1]: 3
B6: AtMKK5 R21A (full length) (enzyme)
chain: B1 chain with A17R, A19R, A20K
modifications: phosphorylated at Ser/Thr residues (signals similar to the wild type; sites not stated)

decrease of AtMPK6(K92M) phosphorylation activity against wild-type AtMKK5, coupled spectrophotometric assay (20 nM AtMKK5, 1 mM ATP, 1 μM AtMPK6(K92M)) (fold decrease) [1]: 10
B7: AtMKK5 L26A (full length) (enzyme)
chain: B1 chain with A17R, A19R, A20K, A21R, L26A
modifications: phosphorylated at Ser/Thr residues (signals similar to the wild type; sites not stated)

decrease of AtMPK6(K92M) phosphorylation activity against wild-type AtMKK5, coupled spectrophotometric assay (20 nM AtMKK5, 1 mM ATP, 1 μM AtMPK6(K92M)) (fold decrease) [1]: 3
B8: AtMKK5 K20A (full length) (enzyme)
chain: B1 chain with A17R, A19R, A21R
modifications: phosphorylated at Ser/Thr residues (signals similar to the wild type; sites not stated)

decrease of AtMPK6(K92M) phosphorylation activity against wild-type AtMKK5, coupled spectrophotometric assay (20 nM AtMKK5, 1 mM ATP, 1 μM AtMPK6(K92M)) (fold decrease) [1]: 10
B9: AtMKK5 L24A (full length) (enzyme)
chain: B1 chain with A17R, A19R, A20K, A21R, L24A
modifications: phosphorylated at Ser/Thr residues (signals similar to the wild type; sites not stated)
